Literature values as cited in article PMC5620257.
Like-named read-outs stand apart in the source and are kept apart here.

Experiments:
[1] = molecular target: PD1 (Homo sapiens) (UniProt Q15116)
[2] = molecular target: PD1 (Homo sapiens) (UniProt Q15116); remark: listed apart in the source

Sequence of UniProt Q15116 (Q15116 25-170): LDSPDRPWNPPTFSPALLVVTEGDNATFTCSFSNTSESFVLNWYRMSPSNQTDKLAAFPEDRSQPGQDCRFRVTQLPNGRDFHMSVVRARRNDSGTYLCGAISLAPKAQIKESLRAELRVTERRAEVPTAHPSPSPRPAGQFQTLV

Kd [1]: 26.6 µM | Kd [2]: 0.77 µM
Substance: PD-L1 (from UniProt Q9NZQ7)
